Tests used:
[1] = target: T1, murine PILRA (mouse, UniProt Q2YFS3 32-302); test: flow cytometry, conditioned medium on 293 cells expressing the target
T1 construct: Ectopically expressed on 293 cells; also called mPILRA; mouse PILRA
Experimental: (§1) Antibodies against human PILRA were generated as follows. […] PILRA^{-/-} PILRB1^{-/-} PILRB2^{-/-} mice were immunized with human PILRA protein, and hybridomas prepared using standard methods. 300 conditioned media samples containing antibodies were assessed for binding to parental 293 cells or 293 cells ectopically expressing hPILRA, hPILRB, cPILRA, mPILRA, or mPILRB by FACS. […] Six antibodies were identified as human PILRA binders using a cutoff of greater than 5-fold binding. […] No antibody was identified that bound mouse PILRA.

[2] = target: T2, human PILRB (human, UniProt Q9UKJ0 20-227); test: flow cytometry, hybridoma conditioned medium on 293 cells expressing the target; MFI relative to 293 parental cells
T2 construct: Ectopically expressed on 293 cells; also called hPILRB
Experimental: as §1

[3] = target: T3, murine PILRB (mPILRB1) (mouse, UniProt Q2YFS2 29-224); test: as above
T3 construct: whole, on cells; Ectopically expressed on 293 cells; also called mouse PILRB
Experimental: as §1

[4] = target: T1, murine PILRA; test: as above
Experimental: as §1

[5] = target: T4, human PILRA (human, UniProt Q9UKJ1 20-303); test: as above
T4 construct: also called hPILRA
Experimental: as §1

[6] = target: T5, cynomolgus monkey PILRA (cynomolgus monkey); test: as above
T5 construct: Ectopically expressed on 293 cells; also called cPILRA
Experimental: as §1

[7] = target: T6, soluble human PILRA hIgG1 Fc construct (human); test: flow cytometry; blocking of PILRA Fc binding to human CD3+ T cells, 3 donors, average ± SEM
T6 construct: also called PILRA Fc; PILRA-Fc
Experimental: Purified anti-hPILRA antibodies were evaluated for their ability to block binding of PILRA Fc to human CD3+ T cells from 3 separate donors in order to calculate the ligand blocking potency of these antibodies.

T4 sequence (Q9UKJ1 20-303): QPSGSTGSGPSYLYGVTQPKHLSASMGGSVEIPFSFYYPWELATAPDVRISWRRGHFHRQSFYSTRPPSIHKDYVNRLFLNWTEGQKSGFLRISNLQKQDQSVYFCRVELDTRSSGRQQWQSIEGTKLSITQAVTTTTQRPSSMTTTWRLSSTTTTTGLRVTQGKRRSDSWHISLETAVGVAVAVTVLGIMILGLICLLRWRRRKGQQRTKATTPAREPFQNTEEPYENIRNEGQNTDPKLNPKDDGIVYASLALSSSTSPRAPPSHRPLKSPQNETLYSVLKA
T1 sequence (Q2YFS3 32-302): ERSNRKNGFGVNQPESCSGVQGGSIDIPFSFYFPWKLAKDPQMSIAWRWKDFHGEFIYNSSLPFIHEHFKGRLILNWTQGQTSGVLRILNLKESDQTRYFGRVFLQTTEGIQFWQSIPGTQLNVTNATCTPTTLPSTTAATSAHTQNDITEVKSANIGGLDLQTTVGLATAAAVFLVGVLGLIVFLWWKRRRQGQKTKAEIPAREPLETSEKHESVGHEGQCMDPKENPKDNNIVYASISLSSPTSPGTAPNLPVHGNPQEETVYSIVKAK
T6 sequence (chain, as listed by the source limits assumed): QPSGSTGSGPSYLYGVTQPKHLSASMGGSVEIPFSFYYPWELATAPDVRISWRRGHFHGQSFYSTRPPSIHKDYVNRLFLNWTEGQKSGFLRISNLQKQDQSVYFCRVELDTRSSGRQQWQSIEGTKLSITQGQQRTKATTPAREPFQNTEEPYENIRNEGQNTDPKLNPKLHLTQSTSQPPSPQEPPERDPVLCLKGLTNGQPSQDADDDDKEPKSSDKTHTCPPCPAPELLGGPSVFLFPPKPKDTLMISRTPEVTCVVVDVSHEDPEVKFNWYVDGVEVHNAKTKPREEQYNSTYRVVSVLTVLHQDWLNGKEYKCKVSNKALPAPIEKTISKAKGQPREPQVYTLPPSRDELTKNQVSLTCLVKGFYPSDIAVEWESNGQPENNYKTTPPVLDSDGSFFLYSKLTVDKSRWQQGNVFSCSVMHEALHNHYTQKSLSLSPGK
T5 sequence (chain, as listed by the source): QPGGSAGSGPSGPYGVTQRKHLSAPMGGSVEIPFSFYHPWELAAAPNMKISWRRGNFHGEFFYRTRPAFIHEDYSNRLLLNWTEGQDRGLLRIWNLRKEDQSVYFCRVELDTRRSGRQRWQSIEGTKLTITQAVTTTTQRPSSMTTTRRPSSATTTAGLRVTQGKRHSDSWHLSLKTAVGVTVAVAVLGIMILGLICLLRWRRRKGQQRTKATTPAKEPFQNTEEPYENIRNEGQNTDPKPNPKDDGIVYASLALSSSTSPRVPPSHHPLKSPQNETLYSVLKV
T2 sequence (Q9UKJ0 20-227): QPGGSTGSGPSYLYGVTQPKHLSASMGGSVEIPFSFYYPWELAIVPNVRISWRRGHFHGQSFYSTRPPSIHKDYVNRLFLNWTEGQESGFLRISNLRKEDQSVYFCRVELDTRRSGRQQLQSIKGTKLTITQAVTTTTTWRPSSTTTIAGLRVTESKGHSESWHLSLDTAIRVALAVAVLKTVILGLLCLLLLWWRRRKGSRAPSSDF
T3 sequence (Q2YFS2 29-224): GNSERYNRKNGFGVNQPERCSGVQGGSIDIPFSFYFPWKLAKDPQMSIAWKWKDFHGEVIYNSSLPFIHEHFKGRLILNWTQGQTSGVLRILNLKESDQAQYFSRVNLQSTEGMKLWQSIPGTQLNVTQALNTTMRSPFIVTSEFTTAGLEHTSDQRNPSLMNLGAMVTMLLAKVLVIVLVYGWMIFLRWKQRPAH

| Binder | binding result [1] | MFI relative to 293 parental cells [2] | MFI relative to 293 parental cells [3] | MFI relative to 293 parental cells [4] | MFI relative to 293 parental cells [5] | MFI relative to 293 parental cells [6] | IC50 [7] |
| --- | --- | --- | --- | --- | --- | --- | --- |
| hPA-001 (antibody, V domains shown, Mouse hybridoma antibody, tested as conditioned medium) VH: QVTLKESGPGILQPSQTLSLTCSFSGFSLTTFGMGVGWIRQPSGKGLEWLAHIWWDDDKYYNPALKSRLTISKDISKNQVFLKIANVDTADTATYYCARIEDYGNPFDYWGQGTTLTVSS VL: DIQMNQSPSSLSASLGDTITITCHASQNIHVWLSWYQQKPGNIPKLLIYKASNLHTGVPSRFSGSGSGTGFTLTISSLQPEDIATYYCQQGQSYPLTFGAGTKLELK | no binding (tested: cutoff of greater than 5-fold binding) | 1.3 fold over 293 parental cells | 0.5 fold over 293 parental cells | 0.5 fold over 293 parental cells | 131 fold over 293 parental cells | 0.5 fold over 293 parental cells | – |
| hPA-005 (antibody, V domains shown, Mouse hybridoma antibody, tested as conditioned medium or purified) VH: QVILKESGPGILQSSQTLSLTCSFSGFSLSTFGMGVGWIRQPSGKGLESLAHIWWDDDKFYNPALKSRLTISKDTSKSQVFLKIANVDTADIATYYCTRIEDYGSYFAYWGQGTTLTVSS VL: DVQMNQSPSSLSASLGDPITITCHASQNIHVWLNWYQQRPGNIPRLLIYKASNLHTGVPSRFSGSGSGTGFTLTISSLQPEDIATYYCQQGQSYPYTFGGGTKLEIK | no binding (tested: cutoff of greater than 5-fold binding) | 1.3 fold over 293 parental cells | 0.5 fold over 293 parental cells | 0.4 fold over 293 parental cells | 104 fold over 293 parental cells | 0.5 fold over 293 parental cells | 1.9 nM |
| hPA-004 (antibody, V domains shown, Mouse hybridoma antibody, tested as conditioned medium or purified) VH: QVTLKESGPGMLQPSQTLSLACSFSGFSLNSFGVAVGWIRQPSGKGLEWLAHIWWDDDKSYNPALKSRLTISKDTSKNQVFLKLANVDTADTATYYCTRIADYGNHFDYWGQGTALTVSS VL: DIQMNQSPSSLSASLGDTITITCHASQNSHVWLSWYQQKPGNIPKLLIYKASNLHTGVPSRFSGSGSGTGFTLTISGLQPEDIATYYCQQGQTYPFTFGSGTKLEIK | no binding (tested: cutoff of greater than 5-fold binding) | – | 0.6 fold over 293 parental cells | 0.6 fold over 293 parental cells | 83.9 fold over 293 parental cells | – | 1.7 nM |
| hPA-002 (antibody, V domains shown, Mouse hybridoma antibody, tested as conditioned medium or purified; also called hPA-002 A647) VH: QVTLQESGPGILQPSQTLSLTCSFSGFSLSTFGMGVGWIRQPSGKGLEWLAHIWWDDDKYYNPALKSRLTISKDTSKNQVFLKIASVDTADIATYYCARVEDYGNPFDYWGQGTTLTVSS VL: DIQMNQSPSSLSASLGDTITITCHASQNIHVWLNWYQQKPGNIPKLLIYKASNLHTGVPSRFSGSGSGTGFTVTISSLQPEDIATYYCQQGQSYPLTFGAGTKLELK | no binding (tested: cutoff of greater than 5-fold binding) | 1.2 fold over 293 parental cells | 0.3 fold over 293 parental cells | 0.3 fold over 293 parental cells | 133 fold over 293 parental cells | 0.3 fold over 293 parental cells | 0.75 nM |

From patent US20230220074A1 (Alector, published 2023)
